# Molecular target: FevR of F. holarctica LVS fused to the Zif protein (F. holarctica LVS)
# Assay: two-hybrid
substance,measurement,value
"MglA/SspA complex of the bridge two-hybrid system (MglA of F. tularensis SCHU S4 fused to ω, with Ss",β-galactosidase activity in strain AW23 after 300 min,1070 AU
same,β-galactosidase activity in strain AW24 after 300 min,1300 AU

# Source: publication PMC3792966
